# Test results from patent US20150147274A1 (CANCER RESEARCH TECHNOLOGY, published 2015).
# Columns and labels:
# [1] = target: human MET (c-Met) on cells (SKOV-3, BxPC3) (human) (UniProt P08581); test: cell-based or functional assay
# [2] = target: MET928 (cMET protein derived from construct 25-928) (human) (UniProt P08581); test: Biacore SPR, MET928-coated surface, 1:1 kinetic analysis
# [3] = target: T1, human MET (c-Met) on cells (SKOV-3, BxPC3) (human, UniProt P08581 25-1390); test: cell-based or functional assay
# [4] = target: T2, MET928 (cMET protein derived from construct 25-928) (human, UniProt P08581 25-928); test: Biacore SPR, MET-928 on chip, scFv format
# T2 construct: MET ectodomain, residues 1-24 are the leader; produced in Lec 8 cells; background text says the ectodomain is furin-cleaved into alpha (25-307) and beta chains; biotinylated form used in selections; also called MET928 extracellular domain; Met extracellular domain
# Procedure: (§1) The binding characteristics of 7A2 and its derivatives were measured using a GE Healthcare Biacore biosensor.
# [5] = target: T1, human MET (c-Met) on cells (SKOV-3, …); test: cell-based or functional assay; remark: listed apart in the source
# [6] = target: T2, MET928 (cMET protein derived from …); test: Biacore SPR, MET-928 on chip, Fab format
# Procedure: as §1
# Sequence of MET928 (cMET protein derived from construct 25-928) (human) (P08581 25-928): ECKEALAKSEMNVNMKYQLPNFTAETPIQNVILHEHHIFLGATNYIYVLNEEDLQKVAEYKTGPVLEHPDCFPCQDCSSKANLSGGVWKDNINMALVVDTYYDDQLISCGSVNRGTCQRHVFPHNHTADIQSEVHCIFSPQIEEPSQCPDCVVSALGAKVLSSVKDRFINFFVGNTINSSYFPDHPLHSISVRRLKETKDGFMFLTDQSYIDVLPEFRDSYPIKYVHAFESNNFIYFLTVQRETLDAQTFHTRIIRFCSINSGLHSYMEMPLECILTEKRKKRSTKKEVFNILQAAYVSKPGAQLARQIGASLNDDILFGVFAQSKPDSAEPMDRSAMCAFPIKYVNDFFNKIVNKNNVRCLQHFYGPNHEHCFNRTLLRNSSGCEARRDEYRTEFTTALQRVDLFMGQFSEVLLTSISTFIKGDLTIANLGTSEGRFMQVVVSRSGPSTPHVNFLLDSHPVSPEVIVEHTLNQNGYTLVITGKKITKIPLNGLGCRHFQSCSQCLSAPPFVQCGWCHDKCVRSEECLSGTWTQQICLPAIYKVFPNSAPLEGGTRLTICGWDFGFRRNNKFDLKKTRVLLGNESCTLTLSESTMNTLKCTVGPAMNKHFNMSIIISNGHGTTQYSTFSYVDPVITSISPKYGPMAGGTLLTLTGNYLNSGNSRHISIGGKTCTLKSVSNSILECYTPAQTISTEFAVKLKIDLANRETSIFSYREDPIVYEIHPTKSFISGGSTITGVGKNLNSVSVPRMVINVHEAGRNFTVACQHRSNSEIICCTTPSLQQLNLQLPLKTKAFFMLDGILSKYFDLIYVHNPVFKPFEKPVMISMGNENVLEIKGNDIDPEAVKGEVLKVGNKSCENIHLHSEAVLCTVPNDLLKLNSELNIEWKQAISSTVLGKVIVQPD
# T2 sequence (P08581 25-928): as above
# Sequence of human MET (c-Met) on cells (SKOV-3, BxPC3) (human) (P08581 25-1390): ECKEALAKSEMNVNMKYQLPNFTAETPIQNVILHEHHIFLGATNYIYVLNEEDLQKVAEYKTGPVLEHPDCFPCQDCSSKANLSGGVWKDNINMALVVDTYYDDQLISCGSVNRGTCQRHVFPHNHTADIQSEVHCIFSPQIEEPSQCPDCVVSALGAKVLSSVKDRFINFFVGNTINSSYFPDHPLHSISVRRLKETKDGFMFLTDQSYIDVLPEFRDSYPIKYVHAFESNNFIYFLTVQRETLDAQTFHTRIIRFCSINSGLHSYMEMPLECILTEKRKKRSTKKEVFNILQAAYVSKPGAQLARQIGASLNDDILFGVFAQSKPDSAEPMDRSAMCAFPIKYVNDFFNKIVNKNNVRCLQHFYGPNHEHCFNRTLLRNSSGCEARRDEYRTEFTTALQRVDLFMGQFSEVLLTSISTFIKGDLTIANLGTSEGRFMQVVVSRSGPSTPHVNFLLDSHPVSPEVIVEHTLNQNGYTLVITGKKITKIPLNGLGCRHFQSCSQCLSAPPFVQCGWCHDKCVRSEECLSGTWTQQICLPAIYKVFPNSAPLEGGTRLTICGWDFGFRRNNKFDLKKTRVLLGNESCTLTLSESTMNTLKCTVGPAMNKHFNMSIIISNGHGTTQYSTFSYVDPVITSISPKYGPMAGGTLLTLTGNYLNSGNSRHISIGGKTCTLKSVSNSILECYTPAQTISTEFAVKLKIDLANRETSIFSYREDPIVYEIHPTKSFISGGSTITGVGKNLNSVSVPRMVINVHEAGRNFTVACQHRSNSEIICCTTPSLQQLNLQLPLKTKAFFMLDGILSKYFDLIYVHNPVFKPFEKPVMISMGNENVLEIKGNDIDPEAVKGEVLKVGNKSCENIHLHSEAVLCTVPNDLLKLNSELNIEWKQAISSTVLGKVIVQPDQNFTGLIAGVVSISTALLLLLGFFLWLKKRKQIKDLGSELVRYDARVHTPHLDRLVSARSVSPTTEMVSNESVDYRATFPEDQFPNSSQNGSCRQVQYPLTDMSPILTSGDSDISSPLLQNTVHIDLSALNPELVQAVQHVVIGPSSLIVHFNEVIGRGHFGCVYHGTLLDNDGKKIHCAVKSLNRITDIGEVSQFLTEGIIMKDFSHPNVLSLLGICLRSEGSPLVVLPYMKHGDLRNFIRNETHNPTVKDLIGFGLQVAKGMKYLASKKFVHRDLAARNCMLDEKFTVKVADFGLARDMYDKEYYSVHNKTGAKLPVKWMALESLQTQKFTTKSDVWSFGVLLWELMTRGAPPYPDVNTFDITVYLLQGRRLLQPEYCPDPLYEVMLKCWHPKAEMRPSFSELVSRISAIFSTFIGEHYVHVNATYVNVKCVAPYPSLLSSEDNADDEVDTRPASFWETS
# T1 sequence (P08581 25-1390): as above
molecule,measurement,setting,value
5D5 scFv,"IC50 (nM), inhibition of HGF/SF-induced migration of SKOV-3 cells, Assay 1",[1],116 nM
same,"IC50 (nM), inhibition of HGF/SF-induced migration of SKOV-3 cells, Assay 2",[1],83.6 nM
same,"IC50 (nM), inhibition of HGF/SF-induced migration of SKOV-3 cells, Mean",[1],99.6 nM
5D5 Fab (His-tagged),"Fab concentration (nanomolar) giving 50% inhibition of HGF/SF-induced SKOV-3 migration, MEAN",[1],101 nM
same,"Fab concentration (nanomolar) giving 50% inhibition of HGF/SF-induced SKOV-3 migration, MEDIAN",[1],91 nM
same,Kd,[2],6.9 nM
same,koff,[2],0.00081 s⁻¹
same,kon,[2],120000 M⁻¹ s⁻¹
"7A2 scFv (expressed in E. coli, 6xHis/tri-Flag tags) (scFv, also called 084-G02; antibody 7A2; not shown: 6xHis/tri-FLAG tags of pSANG10-3F) scFv: QMQLVQSGAEVKKPGAPVKVSCKVSGYTFTDYYMHWVQQAPGKGLEWMGLVDPEDGETIYAEKFQGRVTITADTSTDTAYMELSSLRSEDTAVYYCATDATTPYYGMDVWGQGTLVTVSSLEGGGGSGGGGSGGGASDIQMTQSPSSLSASVGDRVTITCQASQDISNYLNWYQQKPGRAPKVLIYDASNLETGVPSRFSGSGSGTEFTLTISNLRPDDFATYYCQQGDSFPLTFGGGTKVEIK","IC50 (nM), inhibition of HGF/SF-induced migration of SKOV-3 cells, Assay 1",[3],2.1 nM
same,"IC50 (nM), inhibition of HGF/SF-induced migration of SKOV-3 cells, Assay 2",[3],2.5 nM
same,"IC50 (nM), inhibition of HGF/SF-induced migration of SKOV-3 cells, Mean",[3],2.3 nM
same,Kd,[4],12.3 nM
same,koff,[4],0.646 s⁻¹
same,kon,[4],5.25e+07 M⁻¹ s⁻¹
"110_A10 scFv (6xHis/tri-Flag tags) (scFv, 7A2 derivative, only VH CDR3 changed; not shown: 6xHis/tri-FLAG tags of pSANG10-3F) scFv: QMQLVQSGAEVKKPGAPVKVSCKVSGYTFTDYYMHWVQQAPGKGLEWMGLVDPEDGETIYAEKFQGRVTITADTSTDTAYMELSSLRSEDTAVYYCATDATTPYWGMQTWGQGTLVTVSSLEGGGGSGGGGSGGGASDIQMTQSPSSLSASVGDRVTITCQASQDISNYLNWYQQKPGRAPKVLIYDASNLETGVPSRFSGSGSGTEFTLTISNLRPDDFATYYCQQGDSFPLTFGGGTKVEIK",Kd,[4],0.301 nM
same,koff,[4],0.00273 s⁻¹
same,kon,[4],9.08e+06 M⁻¹ s⁻¹
"110_A12 scFv (6xHis/tri-Flag tags) (scFv, 7A2 derivative, only VH CDR3 changed; not shown: 6xHis/tri-FLAG tags of pSANG10-3F) scFv: QMQLVQSGAEVKKPGAPVKVSCKVSGYTFTDYYMHWVQQAPGKGLEWMGLVDPEDGETIYAEKFQGRVTITADTSTDTAYMELSSLRSEDTAVYYCATDATTPYWFPREWGQGTLVTVSSLEGGGGSGGGGSGGGASDIQMTQSPSSLSASVGDRVTITCQASQDISNYLNWYQQKPGRAPKVLIYDASNLETGVPSRFSGSGSGTEFTLTISNLRPDDFATYYCQQGDSFPLTFGGGTKVEIK",Kd,[4],0.958 nM
same,koff,[4],0.00156 s⁻¹
same,kon,[4],1.63e+06 M⁻¹ s⁻¹
"111_D06 scFv (6xHis/tri-Flag tags) (scFv, 7A2 derivative, only VH CDR3 changed; not shown: 6xHis/tri-FLAG tags of pSANG10-3F) scFv: QMQLVQSGAEVKKPGAPVKVSCKVSGYTFTDYYMHWVQQAPGKGLEWMGLVDPEDGETIYAEKFQGRVTITADTSTDTAYMELSSLRSEDTAVYYCATDATTPYWGMWQWGQGTLVTVSSLEGGGGSGGGGSGGGASDIQMTQSPSSLSASVGDRVTITCQASQDISNYLNWYQQKPGRAPKVLIYDASNLETGVPSRFSGSGSGTEFTLTISNLRPDDFATYYCQQGDSFPLTFGGGTKVEIK",Kd,[4],0.183 nM
same,koff,[4],0.00549 s⁻¹
same,kon,[4],3.01e+07 M⁻¹ s⁻¹
"112_G01 scFv (6xHis/tri-Flag tags) (scFv, not shown: 6xHis/tri-FLAG tags) scFv: QMQLVQSGAEVKKPGAPVKVSCKVSGYTFTDYYMHWVQQAPGKGLEWMGLVDPEDGETIYAEKFQGRVTITADTSTDTAYMELSSLRSEDTAVYYCATDATTPYWGMWHWGQGTLVTVSSLEGGGGSGGGGSGGGASDIQMTQSPSSLSASVGDRVTITCQASQDISNYLNWYQQKPGRAPKVLIYDASNLETGVPSRFSGSGSGTEFTLTISNLRPDDFATYYCQQGDSFPLTFGGGTKVEIK",Kd,[4],0.786 nM
same,koff,[4],0.00238 s⁻¹
same,kon,[4],3.03e+06 M⁻¹ s⁻¹
"7A2 Fab (His- and FLAG-tagged, hinged format) (Fab, V domains shown, Fab from pBIOCAM7-3F in HEK293 cells, hinged format (Leu-Glu after VH), hexahistidine and tri-FLAG tags at the C-terminus of the heavy chain) VH: QMQLVQSGAEVKKPGAPVKVSCKVSGYTFTDYYMHWVQQAPGKGLEWMGLVDPEDGETIYAEKFQGRVTITADTSTDTAYMELSSLRSEDTAVYYCATDATTPYYGMDVWGQGTLVTVSS VL: DIQMTQSPSSLSASVGDRVTITCQASQDISNYLNWYQQKPGRAPKVLIYDASNLETGVPSRFSGSGSGTEFTLTISNLRPDDFATYYCQQGDSFPLTFGGGTKVEIK","IC50, inhibition of HGF/SF-induced migration of SKOV-3 cells, Assay 1",[5],387 nM
same,"IC50, inhibition of HGF/SF-induced migration of SKOV-3 cells, Assay 2",[5],493 nM
same,"IC50, inhibition of HGF/SF-induced migration of SKOV-3 cells, Assay 3",[5],278 nM
same,"Mean IC50, inhibition of HGF/SF-induced migration of SKOV-3 cells",[5],386 nM
same,Kd,[6],77.3 nM
same,koff,[6],0.0882 s⁻¹
same,kon,[6],1.14e+06 M⁻¹ s⁻¹
